Like-named read-outs stand apart in the source and are kept apart here.

The target of data set [1] is T1, hnRNPK KH3 (Homo sapiens, UniProt P61978 384-463). As to the kind of experiment: ITC.
Data set [2] concerns the target T1, hnRNPK KH3. As to the kind of experiment: ITC. The source holds these as a separate data set.

T1 sequence (P61978 384-463): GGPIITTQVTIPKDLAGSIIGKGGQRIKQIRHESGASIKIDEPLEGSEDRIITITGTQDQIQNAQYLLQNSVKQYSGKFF

As for CUCCCGC (ssRNA) [heptamer RNA], the Kd in data set [1] is 4.31 ± 0.68 µM; in data set [2], 4.74 ± 1 µM.
On to CUAAAGC (ssRNA) [mutant heptamer RNA], for which, in data set [1], the binding result is “no binding”.

Values taken from publication PMC10023864.
